Test results taken from PMC8786727, “Oligomerization of the FliF Domains Suggests a Coordinated Assembly of the Bacterial Flagellum MS Ring” (Frontiers in Microbiology, 2021).

Columns and labels:
[1] = target: the molecule itself; experiment: cryo-EM 2D classification; protein at 10 mg/ml in 50 mM Hepes pH 9.0, 150 mM NaCl; symmetry read from top-view 2D classes; no 3D structure
[2] = target: the molecule itself; experiment: SEC; purified protein on Superdex 200 10/300 or Superose 6 10/300; 50 mM Hepes pH 8.0 or 9.0, 500 mM NaCl; oligomeric state from the elution volume

| Protein | stoichiometry N [1] | binding result [2] |
| --- | --- | --- |
| S. Typhimurium FliF RBM2 (FliF_(124–229)) (domain or fragment, FliF, Salmonella enterica serovar Typhimurium, residues 124-229 (RBM2 and linker L2); Made by site-directed mutagenesis from the FliF 50-438 pET-28a construct; also called RBM2 + L2; source: E. coli BL21 DE3, purified (Ni-NTA, SEC on Superdex 200); copies: 23) SQFSEQVNYQRALEGELARTIETLGPVKSARVHLAMPKPSLFVREQKSPSASVTVTLEPGRALDEGQISAVVHLVSSAVAGLPPGNVTLVDQSGHLLTQSNTSGRD | 23 | – |
| S. Typhimurium FliF RBM3 (FliF_(231–438)) (domain or fragment, FliF, Salmonella enterica serovar Typhimurium, residues 231-438 (RBM3); Made by site-directed mutagenesis from the FliF 50-438 pET-28a construct; Forms rings; the number of subunits of this construct was not measured; source: E. coli BL21 DE3, purified (Ni-NTA, SEC on Superose 6)) NDAQLKFANDVESRIQRRIEAILSPIVGNGNVHAQVTAQLDFANKEQTEEHYSPNGDASKATLRSRQLNISEQVGAGYPGGVPGALSNQPAPPNEAPIATPPTNQQNAQNTPQTSTSTNSNSAGPRSTQRNETSNYEVDRTIRHTKMNVGDIERLSVAVVVNYKTLADGKPLPLTADQMKQIEDLTREAMGFSDKRGDTLNVVNSPFS | – | binds |
| S. Typhimurium FliF RBM1-RBM2-RBM3 (FliF_(50–438)) (domain or fragment, FliF (flagellar M-ring protein), Salmonella enterica serovar Typhimurium, residues 50-438 (RBM1, RBM2 and RBM3, without the two trans-membrane helices); full length is 1-560; Synthetic gene in pET-28a; 33-fold symmetry seen in top-view cryo-EM 2D classes; the rings also stick together (~10 MDa by SEC-MALS); also called StFliF_(50–438); periplasmic region of FliF; source: E. coli BL21 DE3, …) DYRTLFSNLSDQDGGAIVAQLTQMNIPYRFANGSGAIEVPADKVHELRLRLAQQGLPKGGAVGFELLDQEKFGISQFSEQVNYQRALEGELARTIETLGPVKSARVHLAMPKPSLFVREQKSPSASVTVTLEPGRALDEGQISAVVHLVSSAVAGLPPGNVTLVDQSGHLLTQSNTSGRDLNDAQLKFANDVESRIQRRIEAILSPIVGNGNVHAQVTAQLDFANKEQTEEHYSPNGDASKATLRSRQLNISEQVGAGYPGGVPGALSNQPAPPNEAPIATPPTNQQNAQNTPQTSTSTNSNSAGPRSTQRNETSNYEVDRTIRHTKMNVGDIERLSVAVVVNYKTLADGKPLPLTADQMKQIEDLTREAMGFSDKRGDTLNVVNSPFS | 33 | – |
